Laboratory results as given in PMC3664666 (Science signaling, 2012).

Target: T1, phosphorylated Mt-MviN KHD 681-963 (M. tuberculosis, UniProt P9WJK2 681-963, phosphothreonine at 947)
T1 sequence: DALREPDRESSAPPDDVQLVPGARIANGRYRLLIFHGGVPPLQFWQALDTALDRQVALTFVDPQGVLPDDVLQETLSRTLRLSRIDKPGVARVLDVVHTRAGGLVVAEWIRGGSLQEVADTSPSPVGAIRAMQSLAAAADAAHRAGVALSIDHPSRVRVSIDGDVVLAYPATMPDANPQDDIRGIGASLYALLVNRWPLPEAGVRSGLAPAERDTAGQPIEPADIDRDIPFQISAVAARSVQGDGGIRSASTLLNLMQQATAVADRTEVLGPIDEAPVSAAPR
Test: ITC

B1: FhaA FHA domain (residues 390 to 525) (domain or fragment)
chain: PQGGGYAEPAGRDYDYGQSGAPDYGQPAPGGYSGYGQGGYGSAGTSVTLQLDDGSGRTYQLREGSNIIGRGQDAQFRLPDTGVSRRHLEIRWDGQVALLADLNSTNGTTVNNAPVQEWQLADGDVIRLGHSEIIVR
**Q.** Which Kd does the source give for B1 here?
**A.** Its Kd is 58 ± 2 nM.
